Experimental data published in paper PMC10786891, “Massively parallel profiling of RNA-targeting CRISPR-Cas13d”.
Changes are numbered by the printed parent chain.

B1: target 2 MT 5'PFS UAA 3'PFS CCA (mixed)
RNA 1: CACCCGUGCAAAAUUGCAGGGGUCUAAAACCUUCUCCAAAUUGUUUCAUCCU
RNA 2: GGGAAUGGAUCCACAUCUACGAAUUCUAAAGGAUGAAACAAUUUGGAGAAGCCAAGAUCGGAAGAGCACACGU
B2: target 2 MT 5'PFS UAA 3'PFS CCG (mixed)
RNA 1: B1 RNA 1
RNA 2: B1 RNA 2 with A54G
B3: target 2 MT 5'PFS GAA 3'PFS AAU (mixed)
RNA 1: B1 RNA 1
RNA 2: B1 RNA 2 with U27G, C52A, C53A, A54U
B4: target 2 MT 5'PFS AUU 3'PFS CAU (mixed)
RNA 1: B1 RNA 1
RNA 2: B1 RNA 2 with U27A, A28U, A29U, C53A, A54U
B5: target 1 insC 3' of 19,insG 3' of 4 (mixed)
RNA 1: CACCCGUGCAAAAAUGCAGGGGUCUAAAACUGAGCGGAUAACCUCUCUAUGG
RNA 2: GGGAAUGGAUCCACAUCUACGAAUUCGUACCAUCAGAGAGGUUAUCCGCGUCACCGAGAUCGGAAGAGCACACGU
B6: target 2 MT 5'PFS GAA 3'PFS AAG (mixed)
RNA 1: B1 RNA 1
RNA 2: B1 RNA 2 with U27G, C52A, C53A, A54G
B7: target 2 MT 5'PFS GAA 3'PFS AAA (mixed)
RNA 1: B1 RNA 1
RNA 2: B1 RNA 2 with U27G, C52A, C53A
B8: target 2 MT 5'PFS GAA 3'PFS AAC (mixed)
RNA 1: B1 RNA 1
RNA 2: B1 RNA 2 with U27G, C52A, C53A, A54C
B9: target 2 MT 5'PFS AUG 3'PFS CCU (mixed)
RNA 1: B1 RNA 1
RNA 2: B1 RNA 2 with U27A, A28U, A29G, A54U
B10: target 2 MT 5'PFS GGG 3'PFS UAC (mixed)
RNA 1: B1 RNA 1
RNA 2: B1 RNA 2 with U27G, A28G, A29G, C52U, C53A, A54C
B11: target 2 MT 5'PFS GGG 3'PFS UAG (mixed)
RNA 1: B1 RNA 1
RNA 2: B1 RNA 2 with U27G, A28G, A29G, C52U, C53A, A54G
B12: target 2 MT 5'PFS CAC 3'PFS AGU (mixed)
RNA 1: B1 RNA 1
RNA 2: B1 RNA 2 with U27C, A29C, C52A, C53G, A54U
B13: target 2 MT 5'PFS UAG 3'PFS AUG (mixed)
RNA 1: B1 RNA 1
RNA 2: B1 RNA 2 with A29G, C52A, C53U, A54G
B14: target 2 MT 5'PFS UAG 3'PFS AUA (mixed)
RNA 1: B1 RNA 1
RNA 2: B1 RNA 2 with A29G, C52A, C53U
B15: target 2 MT 5'PFS UAG 3'PFS AUC (mixed)
RNA 1: B1 RNA 1
RNA 2: B1 RNA 2 with A29G, C52A, C53U, A54C
B16: target 1 insA 3' of 13,insU 3' of 13 (mixed)
RNA 1: B5 RNA 1
RNA 2: GGGAAUGGAUCCACAUCUACGAAUUCGUACCAUAGAGAGAUGUUAUCCGCUCACCGAGAUCGGAAGAGCACACGU
B17: target 2 MT 5'PFS UGU 3'PFS UUU (mixed)
RNA 1: B1 RNA 1
RNA 2: B1 RNA 2 with A28G, A29U, C52U, C53U, A54U
B18: target 2 MT 5'PFS AUG 3'PFS CCG (mixed)
RNA 1: B1 RNA 1
RNA 2: B1 RNA 2 with U27A, A28U, A29G, A54G
B19: target 2 MT 5'PFS GGG 3'PFS UAU (mixed)
RNA 1: B1 RNA 1
RNA 2: B1 RNA 2 with U27G, A28G, A29G, C52U, C53A, A54U
B20: target 2 MT 5'PFS AUG 3'PFS CCA (mixed)
RNA 1: B1 RNA 1
RNA 2: B1 RNA 2 with U27A, A28U, A29G
B21: target 2 MT 5'PFS CAG 3'PFS CCA (mixed)
RNA 1: B1 RNA 1
RNA 2: B1 RNA 2 with U27C, A29G
B22: target 2 MT 5'PFS UAG 3'PFS AUU (mixed)
RNA 1: B1 RNA 1
RNA 2: B1 RNA 2 with A29G, C52A, C53U, A54U
B23: target 2 MT 5'PFS UAU 3'PFS AUA (mixed)
RNA 1: B1 RNA 1
RNA 2: B1 RNA 2 with A29U, C52A, C53U
B24: target 2 MT 5'PFS UGA 3'PFS CAC (mixed)
RNA 1: B1 RNA 1
RNA 2: B1 RNA 2 with A28G, C53A, A54C
B25: target 2 MT 5'PFS AAU 3'PFS CCA (mixed)
RNA 1: B1 RNA 1
RNA 2: B1 RNA 2 with U27A, A29U
B26: target 2 MT 5'PFS UAU 3'PFS AUG (mixed)
RNA 1: B1 RNA 1
RNA 2: B1 RNA 2 with A29U, C52A, C53U, A54G
B27: target 1 insG 3' of 20,insU 3' of 7 (mixed)
RNA 1: B5 RNA 1
RNA 2: B5 RNA 2 with U33G, C34U, C47U, G48C, C49G, G50C
B28: target 1 complement block 1-14 (mixed)
RNA 1: B5 RNA 1
RNA 2: GGGAAUGGAUCCACAUCUACGAAUUCGUACCAUAGAGUCCAAUAGGCGAGUCCGAGAUCGGAAGAGCACACGU
B29: target 1 insU 3' of 13,insG 3' of 7 (mixed)
RNA 1: B5 RNA 1
RNA 2: B16 RNA 2 with A40U, U41G, G42U, U44A, A45U, U46C, C47G
B30: target 2 MT 5'PFS GUG 3'PFS CGG (mixed)
RNA 1: B1 RNA 1
RNA 2: B1 RNA 2 with U27G, A28U, A29G, C53G, A54G
B31: target 2 MT 5'PFS GUG 3'PFS CGC (mixed)
RNA 1: B1 RNA 1
RNA 2: B1 RNA 2 with U27G, A28U, A29G, C53G, A54C
B32: target 2 MT 5'PFS GUG 3'PFS CGA (mixed)
RNA 1: B1 RNA 1
RNA 2: B1 RNA 2 with U27G, A28U, A29G, C53G
B33: target 2 MT 5'PFS UAU 3'PFS AUU (mixed)
RNA 1: B1 RNA 1
RNA 2: B1 RNA 2 with A29U, C52A, C53U, A54U
B34: target 2 MT 5'PFS UGC 3'PFS CGA (mixed)
RNA 1: B1 RNA 1
RNA 2: B1 RNA 2 with A28G, A29C, C53G
B35: target 2 MT 5'PFS GUG 3'PFS CGU (mixed)
RNA 1: B1 RNA 1
RNA 2: B1 RNA 2 with U27G, A28U, A29G, C53G, A54U
B36: target 2 MT 5'PFS UGC 3'PFS CGC (mixed)
RNA 1: B1 RNA 1
RNA 2: B1 RNA 2 with A28G, A29C, C53G, A54C
B37: target 2 MT 5'PFS UGC 3'PFS CGG (mixed)
RNA 1: B1 RNA 1
RNA 2: B1 RNA 2 with A28G, A29C, C53G, A54G

What follows are binders tested against T1, EsCas13d, nuclease-dead (Eubacterium siraeum, UniProt B0MS50, R295A;H300A;R849A;H854A) (assay: crRNA (strand 1, pre-loaded); Mg2+; 40 mM Tris-HCl pH 7.5, 150 mM NaCl, 6 mM MgCl2, 1 mM DTT, 0.1% Tween-20, 0.2 mg/ml BSA; 25 C; 10 min per concentration, then washed). Details: tags: His6-TwinStrep-SUMO cleaved; N-terminal SNAP kept (SNAP-Surface 488); label: 3' end held by stalled T7 RNA polymerase.
T1 sequence: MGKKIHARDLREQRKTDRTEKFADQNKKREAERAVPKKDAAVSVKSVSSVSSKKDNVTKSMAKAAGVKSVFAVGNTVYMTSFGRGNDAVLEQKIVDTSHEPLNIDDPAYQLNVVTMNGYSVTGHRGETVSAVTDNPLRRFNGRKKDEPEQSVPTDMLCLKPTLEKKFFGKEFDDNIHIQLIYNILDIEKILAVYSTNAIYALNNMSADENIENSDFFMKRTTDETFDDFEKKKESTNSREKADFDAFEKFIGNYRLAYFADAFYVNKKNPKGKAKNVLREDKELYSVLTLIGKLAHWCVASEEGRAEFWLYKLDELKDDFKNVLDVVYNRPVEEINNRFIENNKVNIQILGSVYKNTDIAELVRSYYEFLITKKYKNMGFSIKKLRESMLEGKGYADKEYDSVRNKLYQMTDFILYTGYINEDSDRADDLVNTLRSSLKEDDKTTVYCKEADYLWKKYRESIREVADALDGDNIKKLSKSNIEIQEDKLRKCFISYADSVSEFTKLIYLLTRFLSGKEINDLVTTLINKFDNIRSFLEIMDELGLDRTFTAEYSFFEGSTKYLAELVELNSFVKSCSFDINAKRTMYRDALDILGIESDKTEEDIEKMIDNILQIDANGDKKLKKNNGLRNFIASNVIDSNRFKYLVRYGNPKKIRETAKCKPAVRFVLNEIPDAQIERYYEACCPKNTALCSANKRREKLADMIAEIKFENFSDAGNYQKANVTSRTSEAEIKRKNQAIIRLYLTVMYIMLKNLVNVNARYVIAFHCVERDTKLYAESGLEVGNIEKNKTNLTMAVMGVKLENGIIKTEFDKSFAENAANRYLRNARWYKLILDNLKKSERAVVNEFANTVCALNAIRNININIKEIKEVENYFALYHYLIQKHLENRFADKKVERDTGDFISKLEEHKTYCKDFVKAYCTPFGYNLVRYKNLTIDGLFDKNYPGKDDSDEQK

Compared with B1, B2 is 3.6-fold lower in Kd: 20 ± 6 nM for the first, 5.6 ± 0.6 nM for the second. The second binds more tightly here.

First: B3
Second: B4
The Kd of the first is 2.8-fold higher: 16 ± 7 nM for the first, 5.7 ± 0.7 nM for the second.

Going from B5 to B6, the Kd falls from 21.5 ± 1.3 nM to 8.2 ± 2.1 nM (2.6-fold). The second binds more tightly here.

First: B7
Second: B8
The Kd of the first is 1.9-fold lower: 5.7 ± 1.1 nM for the first, 11 ± 1.6 nM for the second. The first binds more tightly here.

Going from B9 to B10, the Kd falls from ~70 nM to 9.6 ± 0.7 nM (7.3-fold). The second binds more tightly here.

First: B11
Second: B12
The Kd of the first is 3-fold higher: 8 ± 0.6 nM for the first, 2.7 ± 0.6 nM for the second.

B13 and B14 are within error of each other in Kd: 3.21 ± 0.28 nM for the first, 2.63 ± 0.33 nM for the second.

First: B15
Second: B16
The Kd of the first is 4.3-fold lower: 3.3 ± 0.7 nM for the first, 14.2 ± 1.3 nM for the second. The first binds more tightly here.

First: B17
Second: B18
The Kd of the first is 5.3-fold higher: 50 ± 13 nM for the first, 9.5 ± 1.1 nM for the second. The second binds more tightly here.

Going from B19 to B20, the Kd rises from 9.6 ± 1 nM to 23.7 ± 3.5 nM (2.5-fold).

Going from B21 to B22, the Kd falls from 10.1 ± 1.4 nM to 2.93 ± 0.34 nM (3.4-fold). The second binds more tightly here.

First: B23
Second: B24
The Kd of the first is 2.7-fold higher: 41 ± 7 nM for the first, 15 ± 4 nM for the second. The second binds more tightly here.

B25 and B26 are within error of each other in Kd: 24 ± 12 nM for the first, 45 ± 9 nM for the second.

B27 and B28 are within error of each other in Kd: 90 ± 40 nM for the first, ~100 nM for the second.

B29 and B30 are within 1.5-fold of each other in Kd: 9.5 ± 0.5 nM for the first, 12.5 ± 1 nM for the second.

B31 and B32 are within 1.5-fold of each other in Kd: 9.5 ± 0.4 nM for the first, 12.8 ± 1.6 nM for the second.

First: B33
Second: B34
The Kd of the first is 1.9-fold lower: 24.8 ± 2.3 nM for the first, ~48 nM for the second. The first binds more tightly here.

Compared with B35, B36 is 4.5-fold higher in Kd: 14.7 ± 1.3 nM for the first, 66 ± 11 nM for the second.

With B37 the Kd was 38 ± 6 nM.
